Molecular target: T1, PD-L1-Ig-V (UniProt Q9NZQ7 19-134)
T1 construct: domain: Ig-V; also called PD-L1胞外域蛋白; not shown: His-Tag from the pET-28a vector
Assay: non-competitive checkerboard ELISA, mean of 6 K values

T1 sequence (Q9NZQ7 19-134): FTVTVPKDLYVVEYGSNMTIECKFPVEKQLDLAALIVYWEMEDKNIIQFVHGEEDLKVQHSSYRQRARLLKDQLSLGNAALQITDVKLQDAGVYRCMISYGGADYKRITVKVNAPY

B1: PD-L1-Ig-V-VHH 6-21 (VHH)
VHH: DVQLQASGGGLVQAGGSLRLSCAASRMIFSTFSIQDMGWYRQAPGKQRDLVALITSDGSTNYADSVKGRFTISRDNAKSTVYLQMNNLKPEDTAVYYCAATDNVSGGRLLLNIWWMRDMWYNYWGQGTLVTVSS
notes: Nanobody from a synthetic phage display library (pCANTAB5E, M13K07 helper phage); also called 6-21号克隆
  Ka: ~1.93e+08 M⁻¹

Reference: patent CN113045662A (SEEBIO BIOTECHNOLOGY SHANGHAI CO LTD, dated 2021)
